B1: LIM and senescent cell antigen-like-containing domain protein 2, residues 13 to 71; numbered along this chain, Q7Z4I7 (parent)
chain: AVCQRCQARFSPAERIVNSNGELYHEHCFVCAQCFRPFPEGLFYEFEGRKYCEHDFQML

Variants of: B1
Test: abundance fitness (aPCA) (normalised: wild type 0, dead -1); higher = more abundant; growth selection in yeast, the domain comes from the species named
Details: Homo sapiens

Abundance fitness, by site and new letter:
F46: V -0.05 | H 0.114 | C -0.127 | K -0.173 | L 0.029 | A -0.039 | P -0.902 | E -0.286 | W 0.014 | R -0.271 | N -0.202 | I -0.446 | Q -0.272 | M -0.241 | G -0.465 | D -0.217
F29: Q -0.184 | T -0.011 | V -0.083 | Y -0.2 | W 0.008 | R -0.141 | S -0.155
E45: V -0.061 | L -0.039
C31: I -0.76 | L -0.709 | V -1.04 | S -0.896 | P -0.888 | K -1.1 | R -0.767 | W -0.893 | F -0.954 | T -0.975 | E -0.612 | Q -1.06 | G -0.774 | H -0.481 | M -0.785 | D -0.574
G48: A -0.201 | C -0.224 | K -0.067 | E -0.062 | S -0.021 | W -0.838 | Q -0.238 | D -0.03 | N 0.114 | P -0.686 | V -0.775 | Y -0.451 | M -0.398 | T -0.15 | H -0.411 | I -0.789 | R -0.083
L42: D -0.023 | W -0.302 | H -0.198 | V -0.026 | G -0.108 | M 0.045 | T 0.07 | S -0.064 | I 0.112 | A 0.02 | C -0.062 | E 0.083 | N -0.012 | Q -0.092 | F -0.301 | P -0.357 | K 0.047 | R 0.006
F38: G -0.58 | I -0.55 | A -0.318 | M -0.225 | N -0.113 | K -0.238 | Q -0.606 | L 0.045 | R -0.571 | P -0.101 | T -0.123 | E -0.512 | D -0.522 | C -0.18 | W -0.273 | Y -0.638 | H -0.784
Q33: F 0.285 | A 0.024 | K -0.092 | N 0.053 | E 0.044 | R -0.077 | Y -0.107 | P -0.58 | M -0.068 | T 0.012 | V 0.071 | C -0.145 | W -0.206 | S -0.135 | L -0.195
F43: N -0.387 | A -0.143 | Q 0.103 | M -0.206 | E -0.522 | S -0.103 | L -0.161 | T -0.014 | V -0.132 | C -0.223 | P -0.042 | R -0.37 | K -0.365 | D -0.69 | Y 0.059 | H -0.204 | I -0.263
P39: G -0.159 | Y -0.396 | D 0.05 | T -0.091 | M -0.143 | I -0.396 | A -0.056 | R -0.107 | V -0.017 | C 0.01 | S -0.124 | F -0.565 | H -0.383 | Q -0.058 | E -0.024 | W -0.206 | K -0.064 | L -0.211
E47: M -0.222 | D -0.083 | H 0.022 | C -0.247 | G -0.062 | Y -0.453 | P -0.773 | K -0.274 | L -0.243 | R -0.154 | F -0.585 | W -0.49 | S -0.364 | T -0.434 | V -0.138 | A -0.129 | Q -0.204 | N -0.335
K50: E -0.263 | A -0.2 | D -0.473 | G -0.212 | H -0.225 | F -0.3
R49: E -0.205 | F -0.245 | T -0.066 | V -0.123 | C -0.011 | A -0.057 | Y -0.328 | M -0.102 | L -0.169 | I -0.101 | N -0.482 | K 0.029 | D -0.413 | G -0.257
E40: H 0.023 | N -0.236 | A -0.098 | I -0.752 | V -0.266 | G -0.158 | K -0.039 | D -0.018 | Y -0.212 | L -0.068 | T -0.15 | W -0.31 | Q -0.105
V30: G -0.233 | N -0.257 | S -0.114 | Y -0.343 | Q -0.265 | I -0.252 | M -0.311 | D -0.798 | E -0.294 | C -0.11 | W -0.411 | R -0.093 | L -0.021 | H -0.143 | K -0.224 | F -0.097 | T -0.065
A32: I -0.117 | S -0.172 | Y 0.147 | G -0.073 | Q 0.083 | E 0.014 | W -0.149 | V -0.001 | L -0.322 | F -0.258 | D -0.026 | C -0.354 | R -0.26 | K -0.274 | H 0.118 | M -0.099
R36: E 0.01 | G -0.064 | L -0.176 | P -0.625 | A -0.196 | H -0.024 | W -0.423 | Q 0.063 | I -0.232 | C -0.026 | S -0.008 | D -0.095 | V -0.399 | T -0.268 | M -0.042 | F -0.298 | Y -0.515 | K 0.094 | N -0.156
F35: C 0.096 | K 0.204 | A 0.077 | P -0.739 | D 0.153 | L 0.031 | E 0.144 | Q -0.014 | I 0.01 | M -0.027 | T 0.072 | Y 0.008 | G 0.195 | S 0.219 | N 0.147 | H 0.224 | V 0.112 | W -0.076
Y44: F 0.002 | I -0.046 | R -0.033 | P -0.941 | D -0.259 | Q -0.019 | C -0.009 | G -0.324 | M -0.114 | E -0.086 | N 0.088 | K -0.03 | T -0.253 | A -0.404 | S -0.342 | L -0.247 | W -0.145 | H 0.024
G41: I -0.733 | Y -0.532 | C -0.205 | L -0.394 | Q 0.096 | M -0.271 | S -0.228 | H -0.338 | W -0.253 | T -0.268 | K -0.305 | A -0.238 | P -0.518 | E -0.612 | N 0.021 | V -0.613 | F -0.481 | R -0.084
C34: D -0.757 | Q -0.622 | M -0.474 | N -0.865 | P -0.508 | V -1.04 | G -0.544 | K -0.901 | Y -0.933 | E -0.788 | F -1.19 | A -0.871 | L -0.52 | R -0.668 | S -1 | W -1.1 | T -1.13
P37: V -0.193 | H -0.445 | Y -0.14 | S -0.016 | D -0.217 | T -0.148 | W -0.371 | C -0.171 | A -0.187 | K -0.214 | Q -0.343 | F -0.192 | I -0.23 | M -0.198 | G -0.328 | E 0.042 | L -0.349

Reference: the Human Domainome abundance scans (Beltran et al. 2025)
